B1: TPR t1 (parent)
chain: GACCAAUCUGCCCUCAGAGCUCGAGAACAUCUUCGGAUGCAGAGGAGGCAGGCUUCGGUGGCGCGAUAGCGCCAACGUCCUCAACCUCCAAUGCAUCCCACCACAUGAUGAUGCCUGAAGAGCCUUGGUUUUUUG

Variants of: B1
Test: polymerase ribozyme fitness, log enrichment relative to wild type (log ratio); higher = more active; in vitro selection for triplet polymerase activity
How it was run: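 Input and output libraries were sequenced on Illumina after a single in vitro selection round, run in triplicate on PCR-built, transcribed mutant libraries of each subunit of a heterodimeric triplet polymerase ribozyme. Selection annealed libraries to a biotinylated primer, the partner subunit and triplets, incubated them frozen at −7 °C, then gel-excised extended constructs for streptavidin-bead capture and RT-PCR. Genotypes with ≥10 input reads and ≥1 read per output were kept. Fitness is the logarithm, taken in base 2, of genotype enrichment divided by wild-type enrichment, using inverse-variance-weighted replicate averages.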

Variant | polymerase ribozyme fitness (log ratio)
G17U U78C | -2.6
A18U C72U | -2.03
A18U C70A | -5.29
A18U C70G | -6.16
A18U C70U | -3.33
G17C U21G G60C C79U G117A C124G | -5.63
G17U A18G C56G A84G U131G | -5.98
G17U A37U G60A | -2.43
A18U C72U U78A | -2.59
A18C C53G C76U | -3.42
A18U A37U U78G A84U U87A | -4.45
A18U C70G C79A | -7.76
A18G C102G G110U | -5.75
A18U C49U C102U G117A | -7.34
A18U A43G | -1.5
G17U U116A G120A U129G | -5.36
A18G C20U G93U U109A C115A | -5.78
G17U G52C G77U C123U | -2.34
A18C U55C | -3.52
A18C U55G | -1.99
A18U C40A G120U C123A U129C | -4.63

Variant | polymerase ribozyme fitness (log ratio)
G17U G44U C49G | -5.1
A18G C22G A27U G117C | -4.21
A18G A118G | -3.1
A18G G36U C56G | -6.14
A18U A66G U78C A118G U132A | -3.83
A18C A46U G71A A84G G117C | -7.1
G17U U55A U112A C114G G120C | -5.87
G17U C114G U132A | -5.35
G17U G120C | -1.09
A18C C56A C73U C86U A90G U106A A108C U112A | -5.34
A18U C56U C64A G69A U112C U129A | -5.64
A18C C49A G60U U106A A111C | -5.37
A18C A74C A84C C115U | -1.56
A18G C49A C79U G120C G128U | -5.04
A18C G36C G57U | -4.25
A18C U59A C89U G122A | -3.38
G17C G69U G120U G128A | -2.65
A18U C64U | -2
A18U C114A U125A U133G | -1.87
G17U C101U | -2.53
A18U A46U G61U A90C C115G | -2.56

Variant | polymerase ribozyme fitness (log ratio)
A18G U54A C62U C88G A111C G113C U125A | -3.53
G17C G69U C79G | -4.17
A18C C101A C123U G127A | -4.43
G17U U87A U106A G128A | -3.83
G17U G61A C88U C104A U133A | -4.19
A18C C20A U54A G63C U96A | -4.09
A18U C94U C101A G110A | -6.65
A18C U131A | -2.1
G17C U55G C56A G63C G77U G113A | -5.71
A18C U54G C123G | -0.39
A18U C40A A41U | -3.61
G17C G61U C114A | -5.45
G17U C22G U33G G61A C115A | -4.69
A18U G35U G71A A108G C115U | -6.98
A18C A50U G60U C102A A119G G127U | -7.23
A18U C22G A66U U78C C82U | -6.51
A18C G42C G47A | -2.35
A18U A74U U78C A111C | -4.61
G17U C64U | -2.46
A18C G69C | -4.31
A18G C101U C114U U129A | -5.75

Variant | polymerase ribozyme fitness (log ratio)
A18C A95U | -3.68
A18G G93C | -3.75
G17U A37U G47U | -5.29
A18G A105G U112C G117C U132A | -3.97
G17U U67G C73A U78C G93U C98G U116C | -6.28
A18U A26G C40G A43U C97A U112A | -6.73
A18G G19A A43C C56U G110A | -2.58
G17U G44C G57U U112C G135A | -1.76
A18G C73A U87G | -3.89
G17U G44A C62U A83U G117A | -5.24
A18U A41C C72G | -2.61
A18C C22U C40U G71U A118U | -6.12
A18U C85G G113C | -5.2
A18U C64U C72G A121G | -0.335
A18U C40U C94U | -3.46
A18G G113U G128U U132A | -5.64
G17C U87A | -3.72
A18U C28A C85G A111U | -4.7
A18G C40U C53U A83U G93C | -5.03
A18C C40A U78G C82G A121U U130A | -3.87
